Data on one substance can be found in US20250207140.

pKd: −log10 of the molar value.

This series has as its target SARS-CoV-2 spike protein (original strain) (SARS-CoV-2) (UniProt P0DTC2). The experiment in a line: flow.

One may read the pKd as −log10 of the Kd, conventionally taken in molar units. A higher pKd goes with a small Kd. Control (-) Apt targeting CD8 gave a pKd of 6.51.
